Source: publication PMC4938795

Target: RD1-MART1^HIGH Y93Fα, yeast displayed (human)
Test: flow cytometry on cells

## MART1/HLA-A2 monomer (from UniProt P61769 21-119) (peptide-MHC)
  fold weaker binding than RD1-MART1^HIGH: 10 fold
